# In the RNAGym collection of RNA variant scans (doi:10.7554/elife.80360):
# B1: Hairpin Ribozyme (parent)
# chain: GUCCUCUUUCACGUGCGCGUGAAAGAGAGAAGUGAACCAGAGAAACACACGUUGUGGUAUAUUACCUGGUA
# Variants of: B1
# Assay: self-cleavage, relative activity (ratio to wild type); higher = more cleavage; co-transcriptional
row,Variant,self-cleavage
1,U9C G68C,0.108
2,U9A A31C,0.158
3,U9A A31U,0.0478
4,U9C A47U,0.178
5,U9A A47C,0.205
6,U9C U63C,0.133
7,U9A C10A,0.743
8,U9A C10U,0.455
9,U9A C10G,0.519
10,U9G A24C,0.318
11,U9A A22U,0.907
12,U9A G34A,0.905
13,U9A G34U,1.19
14,U9C G40A,0.313
15,U9A A44U,0.109
16,U9A A44C,0.132
17,U9C A71G,0.933
18,U9C A71C,1.24
19,U9C C18G,0.56
20,U9C G69U,0.256
21,U9G A30C,0.206
22,U9G A30U,0.0546
23,U9C A23C,0.862
24,U9C A23G,0.814

row,Variant,self-cleavage
1,U9A A36G,0.797
2,U9A A36C,0.456
3,U9C U62C,0.143
4,U9A U14A,0.594
5,U9C C48U,0.0794
6,U9C C48G,0.145
7,U9A U62A,0.174
8,U9C U58G,0.729
9,U9G A31C,0.0438
10,U9G A31G,0.549
11,U9C G15U,0.879
12,U9C C46G,0.167
13,U9C G56C,0.158
14,U9C G56U,0.0494
15,U9C G42A,0.081
16,U9C G42U,0.34
17,U9C C10G,0.582
18,U9A A35C,0.69
19,U9C A36C,0.491
20,U9C C65G,0.159
21,U9C C65A,0.945
22,U9C A41U,0.966
23,U9C G57U,0.185
24,U9A C66A,0.166

row,Variant,self-cleavage
1,U9G C18G,0.801
2,U9G G27A,0.332
3,U9G G27U,0.171
4,U9A G19C,0.588
5,U9C U20C,0.885
6,U9C U20A,0.692
7,U9C A35G,0.688
8,U9C A35C,0.602
9,U9A A59U,0.14
10,U9C A11G,0.692
11,U9C A49G,0.21
12,U9C A49C,0.204
13,U9C G29U,0.179
14,U9C G29C,0.1
15,U9A A39C,0.423
16,U9G C65A,0.609
17,U9A C46A,0.0884
18,U9C G17C,0.647
19,U9C G17A,0.805
20,U9A G51A,0.688
21,U9A G51C,0.673
22,U9G A23G,0.72
23,U9C G25U,0.386
24,U9C C16A,0.761

row,Variant,self-cleavage
1,U9C A43C,0.102
2,U9C A43G,0.0922
3,U9C A45U,0.0912
4,U9C A45C,0.121
5,U9C A44G,0.19
6,U9G A41C,0.693
7,U9G G13A,0.536
8,U9G G13U,0.678
9,U9A C65A,0.69
10,U8G U62C,0.332
11,U9G G17C,0.379
12,U9C A30G,0.336
13,U9A G15U,0.864
14,U9A G15A,0.704
15,U9A G42C,0.187
16,U9G A64U,0.164
17,U9A G13A,0.471
18,U9A U67C,0.174
19,U9A U55A,0.225
20,U9A U55C,0.179
21,U9C G19U,0.617
22,U9C G19C,0.485
23,U9A G54U,0.39
24,U9G G32A,0.128

row,Variant,self-cleavage
1,U9C A26C,0.426
2,U9C A26G,0.747
3,U9C U14A,0.781
4,U9A C38A,0.146
5,U9C U52G,0.74
6,U9C U52C,0.6
7,U9G A35U,0.631
8,U9A G17A,0.695
9,U9A G17U,0.65
10,U9A G17C,0.261
11,U9A A71U,0.525
12,U9G A61C,0.115
13,U9G C37U,0.5
14,U9A U53A,0.768
15,U9G A39U,0.158
16,U9G A39G,0.206
17,U9A C16G,0.511
18,U9G G19U,0.546
19,U9G A43C,0.0922
20,U9A A61G,0.148
21,U9A A61U,0.185
22,U9A A41U,0.786
23,U9A A41C,0.783
24,U9G G42A,0.109

row,Variant,self-cleavage
1,U9C U70A,0.669
2,U9G C10G,0.375
3,U9A G21U,0.732
4,U9A G21A,0.573
5,U9A U60C,0.993
6,U9C C66G,0.202
7,U9G G21A,0.554
8,U9C U55A,0.299
9,U9C U55C,0.134
10,U9A A23C,0.501
11,U9G C66U,0.429
12,U9G A47C,0.406
13,U9G A47U,0.0873
14,U9C U67A,0.174
15,U9A G40C,0.133
16,U9A G27A,0.25
17,U9A A49C,0.254
18,U9G G34U,1.15
19,U9G A44C,0.0667
20,U9G A44G,0.129
21,U9G A26U,0.477
22,U9G A11C,0.416
23,U9C G32C,0.0478
24,U9C G32A,0.125

row,Variant,self-cleavage
1,U9C A28C,0.394
2,U9A G56U,0.178
3,U9C G34U,1.09
4,U9A U20A,0.605
5,U9A U20G,0.583
6,U9C A61C,0.183
7,U9G C12U,0.664
8,U9A A64C,0.0749
9,U9A A64G,0.284
10,U9C U60A,0.769
11,U9C G54U,0.539
12,U9C U33A,0.0961
13,U9C U33G,0.154
14,U9C U53A,1.19
15,U9A A30U,0.195
16,U9A C12U,0.645
17,U9G A59G,0.241
18,U9A A26G,0.825
19,U9A U70A,0.581
20,U9A U70C,0.719
21,U9C C38G,0.145
22,U9A G57U,0.182
23,U9A G57A,0.141
